One assay has as its target hMPV B F WT Control (hMPV B, UniProt Q6WB98 19-102). The experiment in a line: BLI, no stress.
Another assay has as its target T1, hMPV117 (hMPV B, UniProt Q6WB98 19-102).
T1 construct: T150C-R156C, A459P
Kind of assay: BLI, no stress. On the technique in general: Biolayer interferometry detects binding as a change in optical thickness at a sensor tip.

In another assay the target is T2, hMPV118 (hMPV B, UniProt Q6WB98 19-102).
T2 construct: T49I, T150C-R156C
Kind of assay: BLI, no stress.

The target of a further assay is T3, hMPV119 (hMPV B, UniProt Q6WB98 19-102).
T3 construct: T49I, T150C-R156C, A459P
The experiment in a line: BLI, no stress.

For the next assay, the target named is T4, hMPV120 (hMPV B, UniProt Q6WB98 19-102).
T4 construct: A140C-S149C, T411C-Q434C
The experiment in a line: BLI, no stress.

The target of the next assay is T5, hMPV121 (hMPV B, UniProt Q6WB98 19-102).
T5 construct: L141C-A161C, T411C-Q434C
The experiment in a line: BLI, no stress.

The target in a further assay is T6, hMPV122 (hMPV B, UniProt Q6WB98 19-102).
T6 construct: A140C-S149C, T411C-Q434C, A459P
The experiment in a line: BLI, no stress.

The target in the next assay is T7, hMPV123 (hMPV B, UniProt Q6WB98 19-102).
T7 construct: A140C-S149C, G239A, T411C-Q434C
Kind of assay: BLI, no stress.

For the next assay, the target named is T8, hMPV124 (hMPV B, UniProt Q6WB98 19-102).
T8 construct: L141C-A161C, T411C-Q434C, A459P
The experiment in a line: BLI, no stress.

For another assay, the target named is T9, hMPV125 (hMPV B, UniProt Q6WB98 19-102).
T9 construct: L141C-A161C, G239A, T411C-Q434C
Kind of assay: BLI, no stress.

The target of another assay is T10, hMPV126 (hMPV B, UniProt Q6WB98 19-102).
T10 construct: T49I, T150C-R156C, G239A, A459P
Kind of assay: BLI, no stress.

For another assay, the target named is T11, hMPV127 (hMPV B, UniProt Q6WB98 19-102).
T11 construct: A140C-S149C, G239A, T411C-Q434C, A459P
The experiment in a line: BLI, no stress.

The target of a further assay is T12, hMPV128 (hMPV B, UniProt Q6WB98 19-102).
T12 construct: T49I, A140C-S149C, G239A, T411C-Q434C, A459P
The experiment in a line: BLI, no stress.

In a further assay the target is T13, hMPV129 (hMPV B, UniProt Q6WB98 19-102).
T13 construct: T49I, A140C-S149C, G239A, T365I, T411C-Q434C, A459P
The experiment in a line: BLI, no stress.

Another assay addresses T14, hMPV130 (hMPV B, UniProt Q6WB98 19-102).
T14 construct: L141C-A161C, G239A, T411C-Q434C, A459P
The experiment in a line: BLI, no stress.

The target in the next assay is T15, hMPV131 (hMPV B, UniProt Q6WB98 19-102).
T15 construct: T49I, L141C-A161C, G239A, T411C-Q434C, A459P
Kind of assay: BLI, no stress.

Another assay concerns the target T16, hMPV132 (hMPV B, UniProt Q6WB98 19-102).
T16 construct: L141C-A161C, S149T, G239A, T411C-Q434C, A459P
Kind of assay: BLI, no stress.

In a further assay the target is T17, hMPV134 (hMPV B, UniProt Q6WB98 19-102).
T17 construct: T49I, L141C-A161C, S149T, G239A, T365I, T411C-Q434C, A459P
The experiment in a line: BLI, no stress.

The target of a further assay is T18, hMPV136 (hMPV B, UniProt Q6WB98 19-102).
T18 construct: A140C-S149C, A459P
The experiment in a line: BLI, no stress.

The target in another assay is T19, hMPV137 (hMPV B, UniProt Q6WB98 19-102).
T19 construct: T49I, A140C-S149C
The experiment in a line: BLI, no stress.

In a further assay the target is T20, hMPV138 (hMPV B, UniProt Q6WB98 19-102).
T20 construct: T49I, A140C-S149C, A459P
Kind of assay: BLI, no stress.

The target in a further assay is T21, hMPV139 (hMPV B, UniProt Q6WB98 19-102).
T21 construct: T49I, L141C-A161C, T411C-Q434C
The experiment in a line: BLI, no stress.

The target in the next assay is T22, hMPV140 (hMPV B, UniProt Q6WB98 19-102).
T22 construct: T49I, L141C-A161C, T411C-Q434C, A459P
Kind of assay: BLI, no stress.

The target in the next assay is T23, hMPV142 (hMPV B, UniProt Q6WB98 19-102).
T23 construct: L141C-A161C, S149T, A459P
Kind of assay: BLI, no stress.

For another assay, the target named is T24, hMPV144 (hMPV B, UniProt Q6WB98 19-102).
T24 construct: T49I, L141C-A161C, S149T, A459P
Kind of assay: BLI, no stress.

The target of another assay is T25, PIV1050 (PIV1).
T25 construct: F113G, F114S, Q92C-G134C, A466V, S473V, A480V
The experiment in a line: BLI, 56C stress.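 Also: binding of thermally stressed PIV1 F mutant supernatant to mAb on AHC biosensors for 5 min.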

The next assay has as its target T26, PIV1052 (PIV1).
T26 construct: Q92C-G134C, A466V, S473V; also called PV1052
The experiment in a line: BLI, 56C stress.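 Also: binding of thermally stressed PIV1 F mutant supernatant to mAb on AHC biosensors for 5 min.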

The target of a further assay is T27, PIV1054 (PIV1).
T27 construct: A466L, S473L, A480L, G134A
The experiment in a line: BLI, 56C stress.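 Also: binding of thermally stressed PIV1 F mutant supernatant to mAb on AHC biosensors for 5 min.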

The target of the next assay is T28, PIV1056 (PIV1).
T28 construct: F113G, F114S, A466L, S473L, A480L, Q92A, G134A
Kind of assay: BLI, 56C stress.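 Also: binding of thermally stressed PIV1 F mutant supernatant to mAb on AHC biosensors for 5 min.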

A further assay has as its target T29, PIV1068 (PIV1).
T29 construct: A466I, S473I, A480I, Q92L, G134A
Kind of assay: BLI, 56C stress.

Protocol for PIV1050: (§1) The OCTET HTX (Sartorius, Gottingen, Germany) instrument was used to evaluate the expression and conformational integrity for each mutant. All measurements were conducted at 30° C. temperature in 96-well black plates (Corning, Corning, NY) with a final volume of 240 μL per well at a constant agitation rate of 1000 RPM.
(§2) Conformation integrity of PIV1 F protein mutants were evaluated by a thermal stress experiment. Crude cell culture supernatants were normalized based on the results of the titer quantitation and then incubated for 1 hour at room temperature and two higher temperatures. For the initial testing of PIV1 mutants, the two temperatures were 50° C. and 53° C. […] Anti-Human IgG Fc Capture (AHC) biosensors were first equilibrated in PB for before being dipped into more PB to establish the initial baseline. […] The mAb-bound biosensors were then dipped into the thermal stresses cell culture supernatants for 5 minutes.
Protocol for PIV1052: as §1, §2
Protocol for PIV1054: as §1, §2
Protocol for PIV1056: as §1, §2
Protocol for PIV1068: as §1, §2

B1: hMPV-2 mAb (antibody, V domains shown)
VH: QVQLQQSGAEVKKPGASVKVSCKASGYTFTSYGISWVRQAPGQGLEWMGWISGYNGNTNYAQTFQGTFTMTTDTSTSTAYMELRRLRSGDTAVYYCARDRYYASGSYNGMDVWGQGTTVTVSS
VL: QSALTQPPSASGAPGQRVTVSCSGSSSNVGSSSVYWYQQLPGTAPKLLIYRNNQRPSGVPDRFSGSKSGTSASLAISGLRSEDEADYYCAAWDDSLSGWVFGGGTKLTVLG
notes: human IgG1
As for B1, the “Response Shift” value amounted to 0.82 nm with hMPV B F WT Control; 0.723 nm in the assay with hMPV117; 0.844 nm in the assay with hMPV118; 0.864 nm with hMPV119; 0.593 nm in the assay with hMPV120; 0.842 nm in the assay with hMPV121. In addition, the “Response Shift” value with hMPV122 was 0.73 nm; in the assay with hMPV123, 0.619 nm; with hMPV124, 0.833 nm; with hMPV125 it was 0.847 nm; in the assay with hMPV126, 0.773 nm; in the assay with hMPV127 it was 0.719 nm. Further, the “Response Shift” value was 0.777 nm with hMPV128; 0.687 nm in the assay with hMPV129; 0.71 nm with hMPV130; 0.727 nm with hMPV131; 0.704 nm with hMPV132; 0.718 nm in the assay with hMPV134. The “Response Shift” value was found to be 0.591 nm with hMPV136; 0.663 nm with hMPV137; 0.681 nm in the assay with hMPV138; 0.699 nm with hMPV139; 0.731 nm in the assay with hMPV140; 0.731 nm with hMPV142. Also, the “Response Shift” value with hMPV144 is 0.712 nm.

B2: PIV1-8 mAb (antibody, V domains shown)
VH: QVQLVQSGAEVKKPGSSVKVSCEASGGTFSNYVISWVRQAPGQGLEWMGGIIPVFATAKYAQKFQGRVTIIADQSTNTAYLELSSLRSDDTAVYFCASVDSGGTWWDAFAIWGQGTMVTVSS
VL: QAVVTQPRSVSGSPGQAVTISCTGTSSDVGGYNYVSWYQHHPGKAPKLIIYDVTKRPSGVPDRFSGSKSGNTASLTISGLQTEYEADYYCCSYAGSYTLVFGGGTKLTVLG
notes: human IgG1; also called hPIV1-8 mAb; hPIV1-8
As to B2, the “Response Shift” value was 0.695 nm in the assay with PIV1050; -0.094 nm in the assay with PIV1052; 0.723 nm with PIV1054; 0.751 nm with PIV1056; 0.559 nm with PIV1068.
